Results: PMC3406929

Target: 1JO8-ZM109 (V1/V2 of HIV-1 strain ZM109 in the 1JO8 scaffold) (not stated | HIV-1 strain ZM109)

B1: antibody PG9 (antibody, V domains shown)
VH: QRLVESGGGVVQPGSSLRLSCAASGFDFSRQGMHWVRQAPGQGLEWVAFIKYDGSEKYHADSVWGRLSISRDNSKDTLYLQMNSLRVEDTATYFCVREAGGPDYRNGYNYYDFYDGYYNYHYMDVWGKGTTVTVSS
VL: QSALTQPASVSGSPGQSITISCNGTSNDVGGYESVSWYQQHPGKAPKVVIYDVSKRPSGVSNRFSGSKSGNTASLTISGLQAEDEGDYYCKSLTSTRRRVFGTGTKLTVL
fold lower affinity than for wild-type ZM109 gp120: 3 fold
